Assay [1] in a line: Fluorescence polarization (FP) binding to fluorescein labeled STX. To be noted: T = 298K; for […]G (kcal mol^−1) relative to wild-type RcSxph: […]G = RT ln (KdSxph mutant/KdSxph). The protocol: […]; Measurements were performed at 25° C. on a Synergy H1 microplate reader (BioTek) using the polarization filter setting (excitation 485 nm, emission 528 nm). […]. The dissociation constants were calculated using GraphPad Prism by fitting fluorescence millipolarization (mP=P·10^−3, where P is polarization) as a function of Sxph concentration using the equation: P={(Pbound−Pfree) [Sxph]/(Kd+[Sxph])}+Pfree, where P is the polarization measured at a given Sxph concentration, Pfree is the […], and Pbound is the maximum polarization of Sxph bound by F-STX (Rossi and Taylor, Hansen et al.).
On the technique in general: Polarisation of emitted light reports the rotation of a fluorescent probe.

Assay [2] is described as follows: Isothermal titration calorimetry (ITC) of STX into Sxph. Particulars: 25° C. Format: binding. The method, then:
ITC measurements were performed at 25° C. using a MicroCal PEAQ-ITC calorimeter (Malvern Panalytical). […]. This STX stock was diluted with the SEC buffer to prepare 100 μM or 300 μM STX solutions having a final buffer composition of 135 mM NaCl, 9 mM HEPES, pH 7.4. […]. The calorimetric experiment settings were: reference power, 5 μcal/s; spacing between injections, 150 s; stir speed 750 rpm; and feedback mode, high. Data were analyzed using MicroCal PEAQ-ITC Analysis Software (Malvern Panalytical) using a single binding site model. The heat of dilution from titrations of 100 μM STX in 135 mM NaCl, 9 mM HEPES, pH 7.4 into 135 mM NaCl, 9 mM HEPES, pH 7.4 was subtracted from each experiment to correct the baseline.
(Isothermal titration calorimetry measures the heat released or taken up as one component is titrated into another.)

B1: OsSxph: Saxiphilin of Oophaga sylvatica, Little devil poison frog, SEQ ID NO:5 (protein, listed as Oophaga sylvatica)
chain: MRMTLQVLLCLCLLVLSSAAPNSRNVRWCVTSDTEEQKCNDLVTSCHVDEILLICVKKSSKEDCVRAISNGEADAISLDSKDVYKASLDPFNLKPIMTEAYSESEQTPCMRHRQSVLGGKKMIIGAFVPKCDEKGNYVPKQCHDSTGFCWCLNENGEEIEGTRTPPGNSGLTCENKANKPPCLKERQKLLSAKPSPAVFVPECDEKGNYRPEQSHVYSWCVDEYGEEVLGSRTFPGKPPKPCEASGETPCIKERNKVLSAAEPLPGAFVPDCDEKGYFSPLQFHGSTGHSWCVTKNGEEIKGTRTRPGQTPPTCDVPAPATLHYAVAVVKKSSSFQLDQLKGKRSCHSAVGEAAGWVAPLNVLLKKKFLLWEEPEQKSTEKVASEIFSASCAAGAQEANLCEQCAGQEDKCTRGPGEPYYGDEGAIRCLRDDKGDVAFVEDTALTGQYSDNFELLCPDNTRRPLSQYKICNFGSVPRHAVVTRSTGDKMKEITEYLLQAQKKECKLFSSTHGKDLLFEDTTSALIALPSGMDTFLFLGPDLFNGMKTLNGAHPPRVKQKIRWCPQNKNEKKKCDDWSSVSGGSIKCTEPSSALECIKMILKDEADAVNLDAEHAYTALKCGLLPSLEEYRNKDDLIVCQIPGAEYSEFGSYRIVALVKKTDKDITWNNLQGKKSCHTHVGDMIGWNIPVYLISKKTKNCDLGSYFSQSCAPGSPIDSNLCKLCIGDPQNTEANTKCSLSDKEAYYGNEGAVRCLVETGDVAFVPHTAVFENTDGKNPALWAKDLKSTDFELLCPDGSRAPVSDYKKCKLSGIANHVTVTRPESVKDVVRITQNQESLYGRTGSQKDIFQMFSSSYGQNLLFNDRTQCLFEFDRMLDRDIMDDYLGKPFHKHLMSDNDCLPKSALATACSFHH
In the case of B1, in assay [1] ([…]G = RT ln (Kd(XSxph)/Kd(RcSxph))), the “[…]G (kcal mol^−1) relative to RcSxph” value was -1.32 kcal/mol.

B2: E540D: RcSxph mutant E540D (protein)
chain: MAPTFQTALFFTIISLSFAAPNAKQVRWCAISDLEQKKCNDLVGSCNVPDITLVCVLRSSTEDCMTAIKDGQADAMFLDSGEVYEASKDPYNLKPIIAEPYSSNRDLQKCLKERQQALAKKMIGHYIPQCDEKGNYQPQQCHGSTGHCWCVNAMGEKISGTNTPPGQTRATCERHELPKCLKERQVALGGDEKVLGRFVPQCDEKGNYEPQQFHGSTGYSWCVNAIGEEIAGTKTPPGKIPATCQKHDLVTTCHYAVAMVKKSSAFQFNQLKGKRSCHSGVSKTDGWKALVTVLVEKKLLSWDGPAKESIQRAMSKFFSVSCIPGATQTNLCKQCKGEEGKNCKNSHDEPYYGNYGAFRCLKEDMGDVAFLRSTALSDEHSEVYELLCPDNTRKPLNKYKECNLGTVPAGTVVTRKISDKTEDINNFLMEAQKRQCKLFSSAHGKDLMFDDSTLQLALLSSEVDAFLYLGVKLFHAMKALTGDAHLPSKNKVRWCTINKLEKMKCDDWSAVSGGAIACTEASCPKGCVKQILKGEADAVKLEVQYMYEALMCGLLPAVDEYHNKDDFGPCKTPGSPYTDFGTLRAVALVKKSNKDINWNNIKGKKSCHTGVGDIAGWVIPVSLIRRQNDNSDIDSFFGESCAPGSDTKSNLCKLCIGDPKNSAANTKCSLSDKEAYYGNQGAFRCLVEKGDVAFVPHTVVFENTDGKNPAVWAKNLKSEDFELLCLDGSRAPVSNYKSCKLSGIPPPAIVTREESISDVVRIVANQQSLYGRKGFEKDMFQLFSSNKGNNLLFNDNTQCLITFDRQPKDIMEDYFGKPYYTTVYGASRSAMSSELISACTIKHC
On to B2, for which, in assay [2], the “[…]G” value is -9.8 ± 0.1 kcal/mol; the “[…]H (kcal mol^−1), binding enthalpy” value was -16.3 ± 1.7 kcal/mol; the “[…]S (cal mol^−1 K^−1)” value is reported as −21.9 ± 5.7 cal mol^−1 K^−1. Moreover, the “[…]G (kcal mol^−1) relative to wild-type RcSxph” value in assay [1] is 1.54 kcal/mol.

B3: D794E: RcSxph mutant D794E (protein)
chain: MAPTFQTALFFTIISLSFAAPNAKQVRWCAISDLEQKKCNDLVGSCNVPDITLVCVLRSSTEDCMTAIKDGQADAMFLDSGEVYEASKDPYNLKPIIAEPYSSNRDLQKCLKERQQALAKKMIGHYIPQCDEKGNYQPQQCHGSTGHCWCVNAMGEKISGTNTPPGQTRATCERHELPKCLKERQVALGGDEKVLGRFVPQCDEKGNYEPQQFHGSTGYSWCVNAIGEEIAGTKTPPGKIPATCQKHDLVTTCHYAVAMVKKSSAFQFNQLKGKRSCHSGVSKTDGWKALVTVLVEKKLLSWDGPAKESIQRAMSKFFSVSCIPGATQTNLCKQCKGEEGKNCKNSHDEPYYGNYGAFRCLKEDMGDVAFLRSTALSDEHSEVYELLCPDNTRKPLNKYKECNLGTVPAGTVVTRKISDKTEDINNFLMEAQKRQCKLFSSAHGKDLMFDDSTLQLALLSSEVDAFLYLGVKLFHAMKALTGDAHLPSKNKVRWCTINKLEKMKCDDWSAVSGGAIACTEASCPKGCVKQILKGEADAVKLEVQYMYEALMCGLLPAVEEYHNKDDFGPCKTPGSPYTDFGTLRAVALVKKSNKDINWNNIKGKKSCHTGVGDIAGWVIPVSLIRRQNDNSDIDSFFGESCAPGSDTKSNLCKLCIGDPKNSAANTKCSLSDKEAYYGNQGAFRCLVEKGDVAFVPHTVVFENTDGKNPAVWAKNLKSEDFELLCLDGSRAPVSNYKSCKLSGIPPPAIVTREESISDVVRIVANQQSLYGRKGFEKDMFQLFSSNKGNNLLFNDNTQCLITFDRQPKDIMEEYFGKPYYTTVYGASRSAMSSELISACTIKHC
On to B3, for which, in assay [2], the “[…]G” value was -8.9 ± 0.1 kcal/mol; the “[…]H (kcal mol^−1), binding enthalpy” value is -11.8 ± 0.0 kcal/mol; the “[…]S (cal mol^−1 K^−1)” value is given as −8.9 ± 0.1 cal mol^−1 K^−1. Besides, the “[…]G (kcal mol^−1) relative to wild-type RcSxph” value in assay [1] worked out at 2.94 kcal/mol.

B4: Y558A: RcSxph mutant, alanine for tyrosine at position 558 (protein)
chain: MAPTFQTALFFTIISLSFAAPNAKQVRWCAISDLEQKKCNDLVGSCNVPDITLVCVLRSSTEDCMTAIKDGQADAMFLDSGEVYEASKDPYNLKPIIAEPYSSNRDLQKCLKERQQALAKKMIGHYIPQCDEKGNYQPQQCHGSTGHCWCVNAMGEKISGTNTPPGQTRATCERHELPKCLKERQVALGGDEKVLGRFVPQCDEKGNYEPQQFHGSTGYSWCVNAIGEEIAGTKTPPGKIPATCQKHDLVTTCHYAVAMVKKSSAFQFNQLKGKRSCHSGVSKTDGWKALVTVLVEKKLLSWDGPAKESIQRAMSKFFSVSCIPGATQTNLCKQCKGEEGKNCKNSHDEPYYGNYGAFRCLKEDMGDVAFLRSTALSDEHSEVYELLCPDNTRKPLNKYKECNLGTVPAGTVVTRKISDKTEDINNFLMEAQKRQCKLFSSAHGKDLMFDDSTLQLALLSSEVDAFLYLGVKLFHAMKALTGDAHLPSKNKVRWCTINKLEKMKCDDWSAVSGGAIACTEASCPKGCVKQILKGEADAVKLEVQYMYEALMCGLLPAVEEYHNKDDFGPCKTPGSPATDFGTLRAVALVKKSNKDINWNNIKGKKSCHTGVGDIAGWVIPVSLIRRQNDNSDIDSFFGESCAPGSDTKSNLCKLCIGDPKNSAANTKCSLSDKEAYYGNQGAFRCLVEKGDVAFVPHTVVFENTDGKNPAVWAKNLKSEDFELLCLDGSRAPVSNYKSCKLSGIPPPAIVTREESISDVVRIVANQQSLYGRKGFEKDMFQLFSSNKGNNLLFNDNTQCLITFDRQPKDIMEDYFGKPYYTTVYGASRSAMSSELISACTIKHC
On to B4, for which, in assay [2], the “[…]G” value is -12.2 ± 0.2 kcal/mol; the “[…]H (kcal mol^−1), binding enthalpy” value is -15.3 ± 0.0 kcal/mol; the “[…]S (cal mol^−1 K^−1)” value is given as −11.1 ± 1.1 cal mol^−1 K^−1. In assay [1], the “[…]G (kcal mol^−1) relative to wild-type RcSxph” value is -1.00 kcal/mol.

The record behind these values is patent US20260063625A1, “COMPOSITIONS FOR AND METHODS OF DETECTING FOOD TOXINS” (priority 2022, published 2026).
